Measurements reported in patent US20210221875A1 (Chugai, published 2021).
Each block holds one binder with its values, some of them ahead of it.

What was measured:
[1] = biological target: T1, biotin-rabbit aggrecan G1-IGD-G2-3xFlag (rabbit, UniProt Q28670 17-683, biotin on the N-terminal Avi-tag (BirA co-expression)); assay: SPR (Biacore), 37 C, as in Example 20
T1 construct: three tandem Flag-tags at the C-terminus and Avi-tag at the N-terminus; also called biotinylated Avi-rabbit aggrecan G1-IGD-G2-3xFLAG; Avi RbG1G2 3FLAG
Method: (§1) The binding affinity of the antibodies at pH 7.4 was determined at 37 degrees C. using Biacore T200 instrument (GE Healthcare). Recombinant Protein A/G (Pierce) was immobilized onto all flow cells of a CM4 sensor chip using amine coupling kit (GE Healthcare). Antibodies and analytes were prepared in buffer (20 mM Sodium Phosphate, 150 mM NaCl, 0.05% Tween 20, 0.005% NaN₃, pH 7.4). Each antibody was captured onto the sensor surface by protein A/G. Antibody capture levels were aimed at 200 resonance unit (RU). […] Sensor surface was regenerated each cycle with 10 mM Glycine-HCl pH 1.5.

[2] = biological target: T2, Human aggrecan G1-IGD-G2 domain with Flag-tag on its C-terminus (human, UniProt P16112 17-675); assay: SPR (Biacore), 37 C, as in Example 20
T2 construct: used unlabelled as Biacore analyte; also called human aggrecan G1-IGD-G2-Flag; human Aggrecan G1G2 flag
Method: as §1

[3] = biological target: T1, biotin-rabbit aggrecan G1-IGD-G2-3xFlag; assay: SPR (Biacore T200), 37 C, pH 7.4, antibody captured by protein A/G, 1:1 model; footnote: fitting was not good due to bi-phasic interaction
Method: as §1

[4] = biological target: T2, Human aggrecan G1-IGD-G2 domain with …; assay: as above
Method: as §1

[5] = biological target: T3, human CD3ed-Fc (human); assay: BLI (Octet RED), human CD3ed-Fc on the sensor
T3 construct: human CD3 epsilon and human CD3 delta linked to a human antibody constant region, biotinylated in culture with BirA; also called CD3 epsilon delta heterodimer fused with the antibody constant region; biotin-labeled human CD3ed-Fc
T3 chain 1: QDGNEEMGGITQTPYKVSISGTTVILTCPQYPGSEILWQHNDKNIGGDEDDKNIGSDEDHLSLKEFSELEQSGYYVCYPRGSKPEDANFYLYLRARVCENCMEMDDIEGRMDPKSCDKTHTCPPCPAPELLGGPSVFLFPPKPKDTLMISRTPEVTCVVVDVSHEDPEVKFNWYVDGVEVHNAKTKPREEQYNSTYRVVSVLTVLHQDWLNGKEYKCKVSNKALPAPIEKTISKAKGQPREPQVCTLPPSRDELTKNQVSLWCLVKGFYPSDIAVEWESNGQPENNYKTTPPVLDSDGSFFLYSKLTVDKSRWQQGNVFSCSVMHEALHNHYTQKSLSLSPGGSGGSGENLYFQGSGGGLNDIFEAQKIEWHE
T3 chain 2: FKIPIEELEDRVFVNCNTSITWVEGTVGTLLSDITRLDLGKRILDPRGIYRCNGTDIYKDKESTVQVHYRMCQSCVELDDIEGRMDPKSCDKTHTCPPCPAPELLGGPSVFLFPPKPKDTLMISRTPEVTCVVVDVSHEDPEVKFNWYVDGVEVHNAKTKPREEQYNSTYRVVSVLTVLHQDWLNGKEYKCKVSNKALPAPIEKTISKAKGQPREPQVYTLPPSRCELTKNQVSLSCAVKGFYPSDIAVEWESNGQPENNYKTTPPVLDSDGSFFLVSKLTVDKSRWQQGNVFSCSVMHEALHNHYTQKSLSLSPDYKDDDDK

[6] = biological target: T4, biotinylated plexin A1 (human, UniProt Q9UIW2 27-1253, biotin on the AviTag sequence (BirA co-expression)); assay: BLI (Octet), in the same way as in Example 3
T4 construct: extracellular region of plexin A1 linked to AviTag and FLAG tag; also called biotin-labeled human plexin A1; human plexin A1
T4 sequence (Q9UIW2 other isoform, or with tags, fused parts or gaps limits assumed): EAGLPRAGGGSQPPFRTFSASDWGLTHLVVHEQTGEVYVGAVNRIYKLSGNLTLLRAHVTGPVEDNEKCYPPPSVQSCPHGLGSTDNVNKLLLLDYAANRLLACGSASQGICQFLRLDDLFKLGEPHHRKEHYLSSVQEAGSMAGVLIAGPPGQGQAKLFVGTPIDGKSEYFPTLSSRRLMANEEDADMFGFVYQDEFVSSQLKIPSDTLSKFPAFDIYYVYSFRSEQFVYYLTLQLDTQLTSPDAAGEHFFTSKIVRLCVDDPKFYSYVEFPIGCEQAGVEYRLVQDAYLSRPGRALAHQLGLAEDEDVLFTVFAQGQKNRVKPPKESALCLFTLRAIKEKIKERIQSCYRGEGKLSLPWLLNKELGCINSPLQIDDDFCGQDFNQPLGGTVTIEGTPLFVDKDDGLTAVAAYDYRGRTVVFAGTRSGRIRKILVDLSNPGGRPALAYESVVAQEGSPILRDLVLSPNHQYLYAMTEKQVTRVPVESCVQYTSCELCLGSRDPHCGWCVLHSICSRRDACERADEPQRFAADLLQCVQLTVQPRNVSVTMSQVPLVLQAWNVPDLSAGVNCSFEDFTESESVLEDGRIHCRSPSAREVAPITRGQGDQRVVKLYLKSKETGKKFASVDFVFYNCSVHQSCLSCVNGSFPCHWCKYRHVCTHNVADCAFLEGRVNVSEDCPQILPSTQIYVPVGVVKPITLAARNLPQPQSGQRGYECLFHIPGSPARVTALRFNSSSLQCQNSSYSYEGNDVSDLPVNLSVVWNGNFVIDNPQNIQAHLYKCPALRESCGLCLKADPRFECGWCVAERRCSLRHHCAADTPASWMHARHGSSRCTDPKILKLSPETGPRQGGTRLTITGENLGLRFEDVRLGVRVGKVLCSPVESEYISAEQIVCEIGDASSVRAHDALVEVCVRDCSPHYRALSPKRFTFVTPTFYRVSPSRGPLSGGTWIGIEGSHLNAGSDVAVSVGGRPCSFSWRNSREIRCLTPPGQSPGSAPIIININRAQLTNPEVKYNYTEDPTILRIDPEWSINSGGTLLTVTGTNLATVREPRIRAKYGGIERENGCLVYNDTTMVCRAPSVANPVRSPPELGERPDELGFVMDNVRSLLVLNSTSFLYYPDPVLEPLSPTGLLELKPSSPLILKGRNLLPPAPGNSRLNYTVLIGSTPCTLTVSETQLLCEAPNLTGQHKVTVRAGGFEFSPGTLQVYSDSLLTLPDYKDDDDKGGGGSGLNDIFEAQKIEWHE

[7] = biological target: T1, biotin-rabbit aggrecan G1-IGD-G2-3xFlag; assay: SPR (Biacore T200), 37 C, pH 7.4, antibody captured by protein A/G, 1:1 model
Method: as §1

[8] = biological target: T2, Human aggrecan G1-IGD-G2 domain with …; assay: as above
Method: as §1

[9] = biological target: T1, biotin-rabbit aggrecan G1-IGD-G2-3xFlag; assay: SPR (Biacore T200), 37 C, pH 7.4, antibody captured, Avi RbG1G2 3Flag as analyte, 1:1 model; second row with this name
Method: (§2) Anti-Human IgG (Fc) antibody was immobilized onto all flow cells of a CM4 sensor chip using Human antibody capture kit (GE Healthcare). Protein A/G was immobilized onto all flow cells of a CM4 or C1 sensor chip using amine coupling kit (GE Healthcare). Antibodies and analytes were prepared in buffer (50 mM Sodium Phosphate, 150 mM NaCl, 0.02% Tween 20, 0.005% NaN3, pH 7.4 or 20 mM Sodium Phosphate, 150 mM NaCl, 0.05% Tween20, 0.005% NaN₃, pH 7.4). Each antibody was captured onto the sensor surface by Anti-Human IgG (Fc) antibody or Protein A/G. Antibody capture levels were aimed at 200 resonance unit (RU). […] Sensor surface was regenerated each cycle with 3 M MgCl₂ or 10 mM Glycine-HCl, pH 1.5.

[10] = biological target: T1, biotin-rabbit aggrecan G1-IGD-G2-3xFlag; assay: SPR (Biacore T200), 37 C, pH 7.4, antibody captured, Avi RbG1G2 3Flag as analyte, 1:1 model;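 also: antibodies captured at roughly 200 RU on a CM4 or C1 chip through anti-human IgG Fc or Protein A/G, in sodium phosphate NaCl buffer with Tween 20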
Method: as §2

Kd [1]: 16.4 nM
koff [1]: 0.000333 s⁻¹
kon [1]: 20400 M⁻¹ s⁻¹
Kd [2]: 553 nM
koff [2]: 0.0108 s⁻¹
kon [2]: 19500 M⁻¹ s⁻¹
B1: GRA0124ccAE02-rbIgG (antibody)
heavy: QSVEESGGRLVTPGTPLTLTCTVSGVDLSNYAIHWVRQAPGKGLEWIGMIRSNGMRYYGTWAKGRFTTSKTSSTTVDLKMTSPTTEDTATYFCARLWNIWGPGTLVTVSSGQPKAPSVFPLAPCCGDTPSSTVTLGCLVKGYLPEPVTVTWNSGTLTNGVRTFPSVRQSSGLYSLSSVVSVTSSSQPVTCNVAHPATNTKVDKTVAPSTCSKPMCPPPELLGGPSVFIFPPKPKDTLMISRTPEVTCVVVDVSQDDPEVQFTWYINNEQVRTARPPLREQQFNSTIRVVSTLPIAHQDWLRGKEFKCKVHNKALPAPIEKTISKARGQPLEPKVYTMGPPREELSSRSVSLTCMINGFYPSDISVEWEKNGKAEDNYKTTPTVLDSDGSYFLYSKLSVPTSEWQRGDVFTCSVMHEALHNHYTQKSISRSPGK
light: QVLTQTPSSTSVAVGGTVTINCQSSPSVYLNLLAWYQQKPGQPPKLLIYSASFLQSGVPPRFSGSGSGTQFTLTISGVQCADAATYYCAGVYSNNIYTFGGGTKVEIKRDPVAPTVLIFPPAADQVATGTVTIVCVANKYFPDVTVTWEVDGTTQTTGIENSKTPQNSADCTYNLSSTLTLTSTQYNSHKEYTCKVTQGTTSVVQSFNRGDC
notes: also called GRA0124ccAE02-rIgG

binding result [5]: no binding
B6: bC3edL1R1N161H01-G1mISHI01/VK1-39-k0MT (antibody, human IgG1, kappa, V domains shown)
VH: QVQLVESGGGLVQPGGSLRLSCAASGFPFDNYVMSWVRQAPGKGLEWISAISWNGGSTYYAESMKGRFTISRDNAKSTLYLQMNSLKSEDTAVYYCAKEPRVYYSGSPDYWGQGTQVTVSG
VL: DIQMTQSPSSLSASVGDRVTITCRASQSISSYLNWYQQKPGKAPKLLIYAASSLQSGVPSRFSGSGSGTDFTLTISSLQPEDFATYYCLQFDSYPLTFGGGTKVEIKR
notes: uncleaved

Kd [9]: 4.07 nM
koff [9]: 0.000341 s⁻¹
kon [9]: 83800 M⁻¹ s⁻¹
Kd [10]: 15.6 nM
koff [10]: 0.000838 s⁻¹
kon [10]: 53900 M⁻¹ s⁻¹
B10: GRA0124Hc0626-SG1/GRA0124Lc0544-SK2 (antibody, human IgG1, kappa)
heavy: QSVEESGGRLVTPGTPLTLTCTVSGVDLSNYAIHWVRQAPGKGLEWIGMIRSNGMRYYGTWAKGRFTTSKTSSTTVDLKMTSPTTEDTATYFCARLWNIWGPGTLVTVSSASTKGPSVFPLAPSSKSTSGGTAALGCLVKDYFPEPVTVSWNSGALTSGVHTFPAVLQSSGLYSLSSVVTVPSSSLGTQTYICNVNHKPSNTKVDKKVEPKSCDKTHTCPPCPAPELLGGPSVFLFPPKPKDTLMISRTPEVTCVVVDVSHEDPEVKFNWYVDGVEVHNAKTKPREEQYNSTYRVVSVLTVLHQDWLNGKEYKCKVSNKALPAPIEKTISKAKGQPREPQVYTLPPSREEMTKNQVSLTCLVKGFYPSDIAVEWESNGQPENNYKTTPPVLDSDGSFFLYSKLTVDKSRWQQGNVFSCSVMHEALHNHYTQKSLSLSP
light: AQVLTQTPSSTSVAVGGTVTINCQSSPSVYLNLLAWYQQKPGQPPKLLIYSASFLQSGVPPRFSGSGSGTQFTLTISGVQCADAATYYCAGVYSNNIYTFGGGTKVEIKRTVAAPSVFIFPPSDEQLKSGTASVVCLLNNFYPREAKVQWKVDNALQSGNSQESVTEQDSKDCTYSLSSTLTLSKADYEKHKVYACEVTHQGLSSPVTKSFNRGEC
notes: also called GRA0124ccAE02-SG1; GRA124ccAE02-SG1

More lines, now with the values behind:

B2: GRA0105gg-rbIgG (antibody)
heavy: QSLEESGGGLVTPGTPLTLTCTVSGLSLSNSVMSWVRQAPGKGLEWIGFISIHDETNYATWAKGRFTISKTSSTTVDLKMTSPTTDDTATYFCARDGDSHGFYFGLWGPGTLVTVSSGQPKAPSVFPLAPCCGDTPSSTVTLGCLVKGYLPEPVTVTWNSGTLTNGVRTFPSVRQSSGLYSLSSVVSVTSSSQPVTCNVAHPATNTKVDKTVAPSTCSKPMCPPPELLGGPSVFIFPPKPKDTLMISRTPEVTCVVVDVSQDDPEVQFTWYINNEQVRTARPPLREQQFNSTIRVVSTLPIAHQDWLRGKEFKCKVHNKALPAPIEKTISKARGQPLEPKVYTMGPPREELSSRSVSLTCMINGFYPSDISVEWEKNGKAEDNYKTTPTVLDSDGSYFLYSKLSVPTSEWQRGDVFTCSVMHEALHNHYTQKSISRSPGK
light: QVLTQTPSPVSAAVGGTVTINCQASQSVYNKNNLAWYQQKPGQPPKLLIYDASKLASGVPSRFKGGGSGTHFTLTISGVQCDDAATYYCQGTYYSSGWYNTFGGGTKVEIKRDPVAPTVLIFPPAADQVATGTVTIVCVANKYFPDVTVTWEVDGTTQTTGIENSKTPQNSADCTYNLSSTLTLTSTQYNSHKEYTCKVTQGTTSVVQSFNRGDC
notes: anti-aggrecan antibody, rabbit constant regions rbIgG / rbIgK
Kd [3]: 4.42 nM
koff [3]: 0.000255 s⁻¹
kon [3]: 57700 M⁻¹ s⁻¹
Kd [4]: 3.16 nM
koff [4]: 0.000287 s⁻¹
kon [4]: 91100 M⁻¹ s⁻¹

B3: bC3edL1R1N160H01-G1mISHI01/VK1-39-k0MT (antibody, human IgG1, kappa, V domains shown)
VH: QVQLVESGGGLVQPGGSLRLSCAASGFTFNHCWMYWVRQAPGKGLEWVSVINTDGGSAYYADSVKGRFTISRDNAKNTLYLQMNSLKSEDTAVYYCARDWAPLVDYYYGMDYWGKGTLVTVSG
VL: DIQMTQSPSSLSASVGDRVTITCRASQSISSYLNWYQQKPGKAPKLLIYAASSLQSGVPSRFSGSGSGTDFTLTISSLQPEDFATYYCLQFDSYPLTFGGGTKVEIKR
binding result [5]: no binding

B4: PX02-R4_017-G1mISHI01/VK1-39-k0MT (antibody, human IgG1, kappa, V domains shown)
VH: QVQLVESGGGLVQPGGSLRLSCTASGISFSISTMGWYRQAPGKQRELVATITSGGEAYYANSMKDRFTISRDNAENTVYLQMNRLKPEDSAVYYCNTKFPWSTDWNARGQGTQVTVSG
VL: DIQMTQSPSSLSASVGDRVTITCRASQSISSYLNWYQQKPGKAPKLLIYAASSLQSGVPSRFSGSGSGTDFTLTISSLQPEDFATYYCLQFDSYPLTFGGGTKVEIKR
notes: uncleaved; light chain printed once for the five molecules
binding result [6]: no binding

B5: bC3edL1R1N164H01-G1mISHI01/VK1-39-k0MT (antibody, human IgG1, kappa, V domains shown)
VH: QVQLVESGGGLVQPGGSLRLSCAASGFTFDVYGMSWVRHSPGKGLEWVSTINWNGGSTYYAESMKGRFTISRDNAKNTVYLQMNSLKPEDTAVYYCAKFAPWDGDMEWGQGTQVTVSG
VL: DIQMTQSPSSLSASVGDRVTITCRASQSISSYLNWYQQKPGKAPKLLIYAASSLQSGVPSRFSGSGSGTDFTLTISSLQPEDFATYYCLQFDSYPLTFGGGTKVEIKR
notes: uncleaved
binding result [5]: no binding

B7: PX03-R2_006-G1mISHI01/VK1-39-k0MT (antibody, human IgG1, kappa, V domains shown)
VH: QLQLVESGGGLVQPGGSLRLSCTASGISFSISTMGWYRQAPGKQRELVATIASGGEAYYANSVKGRFTISRDNAENTVYLQMNRLKPEDSAVYYCNTKFPWSTDWNARGQGTQVTVSG
VL: DIQMTQSPSSLSASVGDRVTITCRASQSISSYLNWYQQKPGKAPKLLIYAASSLQSGVPSRFSGSGSGTDFTLTISSLQPEDFATYYCLQFDSYPLTFGGGTKVEIKR
notes: as for B4
binding result [6]: no binding

B8: PX03-R4_009-G1mISHI01/VK1-39-k0MT (antibody, human IgG1, kappa, V domains shown)
VH: QLQLVESGGGLVQPGGSLRLSCTASGISFSISTMGWYRQAPGKQRELVATIASGGEAYYANSVKGRFTISREYAENTVFLQMNRLKPEDSAVYYCNTKFPWSTDWNARGQGTQVTVSG
VL: DIQMTQSPSSLSASVGDRVTITCRASQSISSYLNWYQQKPGKAPKLLIYAASSLQSGVPSRFSGSGSGTDFTLTISSLQPEDFATYYCLQFDSYPLTFGGGTKVEIKR
notes: as for B4
binding result [6]: no binding

B9: GRA1013hq-rIgG (antibody)
heavy: EVKLMESGGGLVKPGGSLKLSCAASGFTFSSYAMSWVRQTPEKRLEWVTSISSGGTTYYPDSVKGRFTISRDNARNILFLQMSSLRSEDTAMYYCARGPHWYLDVWGAGTSVTVSSSTKGGQPKAPSVFPLAPCCGDTPSSTVTLGCLVKGYLPEPVTVTWNSGTLTNGVRTFPSVRQSSGLYSLSSVVSVTSSSQPVTCNVAHPATNTKVDKTVAPSTCSKPMCPPPELLGGPSVFIFPPKPKDTLMISRTPEVTCVVVDVSQDDPEVQFTWYINNEQVRTARPPLREQQFNSTIRVVSTLPIAHQDWLRGKEFKCKVHNKALPAPIEKTISKARGQPLEPKVYTMGPPREELSSRSVSLTCMINGFYPSDISVEWEKNGKAEDNYKTTPTVLDSDGSYFLYSKLSVPTSEWQRGDVFTCSVMHEALHNHYTQKSISRSPGK
light: DILMTQTPLSLPVSLGDQASISCRSSQSIVHSNGNTYLEWYLQKPGQSPKLLIYKVSNRFSGVPDRFSGSGSGTDFTLKISRVEAEDLGVYYCFQGSHLPLTFGAGTKLELKRTVAARDPVAPTVLIFPPAADQVATGTVTIVCVANKYFPDVTVTWEVDGTTQTTGIENSKTPQNSADSTYNLSSTLTLTSTQYNSHKEYTCKVTQGTTSVVQSFNRGDC
notes: anti-aggrecan antibody from mouse B cells, rabbit constant regions rbIgG / rbIgK2
Kd [7]: 459 nM
koff [7]: 0.00973 s⁻¹
kon [7]: 21200 M⁻¹ s⁻¹
Kd [8]: 1540 nM
koff [8]: 0.0406 s⁻¹
kon [8]: 26300 M⁻¹ s⁻¹
